The source of these data is article PMC11009657 (Proceedings of the National Academy of Sciences of the …, 2024).

For data set [1], the target named is tau extracted from Alzheimer brain samples (human (endogenous in Alzheimer brain)). Description: sarkosyl extraction and Western blot.
The data set “ThT fluorescence + TEM” deals with the molecule itself. Description: ThT fluorescence + TEM.

The term stoichiometry N denotes a count of units in the complex or per binding partner.

Chain of tau extracted from Alzheimer brain samples (natural protein) (P10636 2-758): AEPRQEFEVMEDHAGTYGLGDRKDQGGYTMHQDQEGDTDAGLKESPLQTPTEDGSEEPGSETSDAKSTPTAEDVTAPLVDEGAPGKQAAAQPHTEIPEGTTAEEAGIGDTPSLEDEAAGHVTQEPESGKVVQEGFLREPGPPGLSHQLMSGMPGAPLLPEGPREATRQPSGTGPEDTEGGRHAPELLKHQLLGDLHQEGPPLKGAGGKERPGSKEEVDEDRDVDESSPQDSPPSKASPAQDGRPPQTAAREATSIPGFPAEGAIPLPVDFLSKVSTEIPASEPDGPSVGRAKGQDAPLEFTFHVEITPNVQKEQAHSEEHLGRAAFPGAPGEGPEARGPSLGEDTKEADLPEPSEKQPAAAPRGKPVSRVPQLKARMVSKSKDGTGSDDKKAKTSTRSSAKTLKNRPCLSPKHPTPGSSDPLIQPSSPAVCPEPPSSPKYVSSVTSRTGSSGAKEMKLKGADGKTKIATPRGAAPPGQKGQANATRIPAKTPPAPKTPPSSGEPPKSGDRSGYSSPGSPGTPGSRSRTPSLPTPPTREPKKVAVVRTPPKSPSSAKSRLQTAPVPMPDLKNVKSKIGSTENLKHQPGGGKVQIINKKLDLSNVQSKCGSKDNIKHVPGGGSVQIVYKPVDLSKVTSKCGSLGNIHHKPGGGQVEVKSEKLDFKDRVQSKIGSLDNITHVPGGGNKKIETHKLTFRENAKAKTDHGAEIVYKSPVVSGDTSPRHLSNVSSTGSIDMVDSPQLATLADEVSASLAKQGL

In turn, “tau extracted from Alzheimer brain samples (natural protein)” displayed a stoichiometry N in data set [1] of 6. DNIKHVPGGGSVQIVYKPV [jR2R3]: the binding result in the data set “ThT fluorescence + TEM” is “binds”.
